# Measured values reported in patent US7741283B2, “Compositions and methods for inhibiting cell proliferation” (St. Louis University, priority 2003, dated 2010).
# T1: acidic pH binding sites (Mus musculus, UniProt P14824)
# T1 sequence (P14824 2-673): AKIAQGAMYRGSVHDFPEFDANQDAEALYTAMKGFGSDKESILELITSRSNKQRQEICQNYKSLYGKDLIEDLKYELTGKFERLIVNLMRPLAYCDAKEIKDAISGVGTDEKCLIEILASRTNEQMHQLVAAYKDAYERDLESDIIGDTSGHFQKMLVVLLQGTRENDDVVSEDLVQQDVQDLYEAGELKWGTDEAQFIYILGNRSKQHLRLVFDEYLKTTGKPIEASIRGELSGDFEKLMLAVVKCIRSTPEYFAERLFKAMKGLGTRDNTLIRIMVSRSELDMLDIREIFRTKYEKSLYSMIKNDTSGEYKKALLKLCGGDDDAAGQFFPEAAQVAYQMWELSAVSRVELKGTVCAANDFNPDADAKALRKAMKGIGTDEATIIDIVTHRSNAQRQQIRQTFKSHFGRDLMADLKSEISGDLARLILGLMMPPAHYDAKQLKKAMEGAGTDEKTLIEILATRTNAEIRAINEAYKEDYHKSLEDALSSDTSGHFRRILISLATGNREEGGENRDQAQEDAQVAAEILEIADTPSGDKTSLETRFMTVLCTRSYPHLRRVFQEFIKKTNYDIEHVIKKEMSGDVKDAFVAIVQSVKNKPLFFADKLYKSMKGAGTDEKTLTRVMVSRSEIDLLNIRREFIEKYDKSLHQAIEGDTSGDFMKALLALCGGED
# B1: (Q^3A^4Y^15L^16) IGF-I: an IGF-I analog which has a low affinity for IGFBP-3 (protein, UniProt P05019 49-118, looked up, variant E3Q T4A Q15Y F16L)
# Insulin-like growth factor 1: GPQALCGAELVDALYLVCGDRGFYFNKPTGYGSSSRRAPQTGIVDECCFRSCDLRRLEMYCAPLKPAKSA
# modifications: Insulin-like growth factor I
# B2: IGFBP-1: IGFBP known not to bind to the IGFBP-3 receptor (protein)
# chain: APWQCAPCSAEKLALCPPVSASCSEVTRSAGCGCCPMCALPLGAACGVATARCARGLSCRALPGEQQPLHALTRGQGACVQESDASAPHAAEAGSPESPESTEITEEELLDNFHLMAPSEEDHSILWDAISTYDGSKALHVTNIKKWKEPCRIELYRVVESLAKAQETSGEEISKFYLPNCNKNGFYHSRQCETSMDGEAGLCWCVYPWNGKRIPGSPEIRGDPNCQIYFNVQN
# B3: IGFBP-2: IGFBP known not to bind to the IGFBP-3 receptor (protein, UniProt P18065 36-325, looked up)
# Insulin-like growth …: AEVLFRCPPCTPERLAACGPPPVAPPAAVAAVAGGARMPCAELVREPGCGCCSVCARLEGEACGVYTPRCGQGLRCYPHPGSELPLQALVMGEGTCEKRRDAEYGASPEQVADNGDDHSEGGLVENHVDSTMNMLGGGGSAGRKPLKSGMKELAVFREKVTEQHRQMGKGGKHHLGLEEPKKLRPPPARTPCQQELDQVLERISTMRLPDERGPLEHLYSLHIPNCDKHGLYNLKQCKMSLNGQRGECWCVNPNTGKLIQGAPTIRGDPECHLFYNEQQEARGVHTQRMQ
# B4: lactoferrin: bovine lactoferrin, an LRP-1 ligand (protein, UniProt P24627 20-708, looked up)
# Lactotransferrin: APRKNVRWCTISQPEWFKCRRWQWRMKKLGAPSITCVRRAFALECIRAIAEKKADAVTLDGGMVFEAGRDPYKLRPVAAEIYGTKESPQTHYYAVAVVKKGSNFQLDQLQGRKSCHTGLGRSAGWIIPMGILRPYLSWTESLEPLQGAVAKFFSASCVPCIDRQAYPNLCQLCKGEGENQCACSSREPYFGYSGAFKCLQDGAGDVAFVKETTVFENLPEKADRDQYELLCLNNSRAPVDAFKECHLAQVPSHAVVARSVDGKEDLIWKLLSKAQEKFGKNKSRSFQLFGSPPGQRDLLFKDSALGFLRIPSKVDSALYLGSRYLTTLKNLRETAEEVKARYTRVVWCAVGPEEQKKCQQWSQQSGQNVTCATASTTDDCIVLVLKGEADALNLDGGYIYTAGKCGLVPVLAENRKSSKHSSLDCVLRPTEGYLAVAVVKKANEGLTWNSLKDKKSCHTAVDRTAGWNIPMGLIVNQTGSCAFDEFFSQSCAPGADPKSRLCALCAGDDQGLDKCVPNSKEKYYGYTGAFRCLAEDVGDVAFVKNDTVWENTNGESTADWAKNLNREDFRLLCLDGTRKPVTEAQSCHLAVAPNHAVVSRSDRAAHVKQVLLHQQALFGKNGKNCPDKFCLFKSETKNLLFNDNTECLAKLGGRPTYEEYLGTEYVTAIANLKKCSTSPLLEACAFLTR
# Experiments:
# [1] = tested on: Mv1Lu cells; assay: [methyl-3H] thymidine incorporation (DNA synthesis), Mv1Lu cells; assay type: cell-based, mink; details: Mv1Lu cells
# [2] = tested on: IRS-2; assay: 32P metabolic labeling and immunoprecipitation of IRS-2, Mv1Lu cells; assay type: cell-based, mink; details: Mv1Lu; for Induction of specific dephosphorylation (mobility change) of 32P-labeled IRS-2: IGFBPs 1 μg/ml, TGF-β1 20 pM
# [3] = tested on: LRP-1; assay: 125I-α2M* binding to Mv1Lu cells at pH 7.4; set-up: species or system mink; details: 10 μM protein, pH 7.4, Mv1Lu
# [4] = molecular target: T2, LRP-1 (Mus musculus, UniProt Q91ZX7); assay: 125I-α2M* binding to MEF cells at pH 7.4; details: 10 μM protein, pH 7.4, MEF
# T2 construct: endogenous in cells; host or cells: MEF (mouse embryonic fibroblasts)
# [5] = tested on: TβR-V purified from bovine liver plasma membranes; assay: 125I-IGFBP-3 / 125I-TGF-β1 affinity labeling of purified TβR-V; assay type: binding; details: DSS, β1^25(41-65) 20 μM, RAP 10-40 μg/ml, α2M* 100 nM, lactoferrin 100 nM
# [6] = molecular target: T1, acidic pH binding sites; assay: Specific binding of 125I-ligands to MEF cells at acidic pH; details: 10 μM protein, pH 5.5, MEF
# [7] = molecular target: acidic pH binding sites (Neogale vison, UniProt A0A8C7BSJ2); assay: Specific binding of 125I-ligands to Mv1Lu cells at acidic pH; set-up: species or system mink
# [8] = molecular target: T1, acidic pH binding sites; assay: Specific binding of 125I-ligands to PEA-13 cells at acidic pH; set-up: endogenous in cells; host or cells: PEA-13 (LRP-1-deficient mouse embryonic fibroblasts); details: 10 μM protein, pH 5.5, PEA-13
# acidic pH binding sites (Neogale vison, UniProt A0A8C7BSJ2), sequence (A0A8C7BSJ2 entry or part of it): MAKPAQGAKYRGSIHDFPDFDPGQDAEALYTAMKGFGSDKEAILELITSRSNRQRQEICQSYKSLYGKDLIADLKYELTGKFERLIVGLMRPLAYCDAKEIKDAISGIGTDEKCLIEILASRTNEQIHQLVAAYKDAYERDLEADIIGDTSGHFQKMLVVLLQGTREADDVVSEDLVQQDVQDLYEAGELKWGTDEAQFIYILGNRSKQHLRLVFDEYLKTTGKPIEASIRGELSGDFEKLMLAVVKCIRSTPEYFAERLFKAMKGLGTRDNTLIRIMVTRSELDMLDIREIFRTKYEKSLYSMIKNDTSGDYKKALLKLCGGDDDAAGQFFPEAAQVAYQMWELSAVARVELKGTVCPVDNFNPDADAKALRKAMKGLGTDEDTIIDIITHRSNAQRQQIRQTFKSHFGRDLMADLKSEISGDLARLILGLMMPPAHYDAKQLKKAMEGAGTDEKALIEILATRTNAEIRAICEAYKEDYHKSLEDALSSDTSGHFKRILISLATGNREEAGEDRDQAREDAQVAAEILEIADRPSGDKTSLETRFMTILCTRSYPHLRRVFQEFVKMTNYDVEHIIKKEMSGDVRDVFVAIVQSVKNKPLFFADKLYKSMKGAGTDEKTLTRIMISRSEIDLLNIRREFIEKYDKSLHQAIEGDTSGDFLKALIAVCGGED
# T2 sequence (Q91ZX7 20-4545): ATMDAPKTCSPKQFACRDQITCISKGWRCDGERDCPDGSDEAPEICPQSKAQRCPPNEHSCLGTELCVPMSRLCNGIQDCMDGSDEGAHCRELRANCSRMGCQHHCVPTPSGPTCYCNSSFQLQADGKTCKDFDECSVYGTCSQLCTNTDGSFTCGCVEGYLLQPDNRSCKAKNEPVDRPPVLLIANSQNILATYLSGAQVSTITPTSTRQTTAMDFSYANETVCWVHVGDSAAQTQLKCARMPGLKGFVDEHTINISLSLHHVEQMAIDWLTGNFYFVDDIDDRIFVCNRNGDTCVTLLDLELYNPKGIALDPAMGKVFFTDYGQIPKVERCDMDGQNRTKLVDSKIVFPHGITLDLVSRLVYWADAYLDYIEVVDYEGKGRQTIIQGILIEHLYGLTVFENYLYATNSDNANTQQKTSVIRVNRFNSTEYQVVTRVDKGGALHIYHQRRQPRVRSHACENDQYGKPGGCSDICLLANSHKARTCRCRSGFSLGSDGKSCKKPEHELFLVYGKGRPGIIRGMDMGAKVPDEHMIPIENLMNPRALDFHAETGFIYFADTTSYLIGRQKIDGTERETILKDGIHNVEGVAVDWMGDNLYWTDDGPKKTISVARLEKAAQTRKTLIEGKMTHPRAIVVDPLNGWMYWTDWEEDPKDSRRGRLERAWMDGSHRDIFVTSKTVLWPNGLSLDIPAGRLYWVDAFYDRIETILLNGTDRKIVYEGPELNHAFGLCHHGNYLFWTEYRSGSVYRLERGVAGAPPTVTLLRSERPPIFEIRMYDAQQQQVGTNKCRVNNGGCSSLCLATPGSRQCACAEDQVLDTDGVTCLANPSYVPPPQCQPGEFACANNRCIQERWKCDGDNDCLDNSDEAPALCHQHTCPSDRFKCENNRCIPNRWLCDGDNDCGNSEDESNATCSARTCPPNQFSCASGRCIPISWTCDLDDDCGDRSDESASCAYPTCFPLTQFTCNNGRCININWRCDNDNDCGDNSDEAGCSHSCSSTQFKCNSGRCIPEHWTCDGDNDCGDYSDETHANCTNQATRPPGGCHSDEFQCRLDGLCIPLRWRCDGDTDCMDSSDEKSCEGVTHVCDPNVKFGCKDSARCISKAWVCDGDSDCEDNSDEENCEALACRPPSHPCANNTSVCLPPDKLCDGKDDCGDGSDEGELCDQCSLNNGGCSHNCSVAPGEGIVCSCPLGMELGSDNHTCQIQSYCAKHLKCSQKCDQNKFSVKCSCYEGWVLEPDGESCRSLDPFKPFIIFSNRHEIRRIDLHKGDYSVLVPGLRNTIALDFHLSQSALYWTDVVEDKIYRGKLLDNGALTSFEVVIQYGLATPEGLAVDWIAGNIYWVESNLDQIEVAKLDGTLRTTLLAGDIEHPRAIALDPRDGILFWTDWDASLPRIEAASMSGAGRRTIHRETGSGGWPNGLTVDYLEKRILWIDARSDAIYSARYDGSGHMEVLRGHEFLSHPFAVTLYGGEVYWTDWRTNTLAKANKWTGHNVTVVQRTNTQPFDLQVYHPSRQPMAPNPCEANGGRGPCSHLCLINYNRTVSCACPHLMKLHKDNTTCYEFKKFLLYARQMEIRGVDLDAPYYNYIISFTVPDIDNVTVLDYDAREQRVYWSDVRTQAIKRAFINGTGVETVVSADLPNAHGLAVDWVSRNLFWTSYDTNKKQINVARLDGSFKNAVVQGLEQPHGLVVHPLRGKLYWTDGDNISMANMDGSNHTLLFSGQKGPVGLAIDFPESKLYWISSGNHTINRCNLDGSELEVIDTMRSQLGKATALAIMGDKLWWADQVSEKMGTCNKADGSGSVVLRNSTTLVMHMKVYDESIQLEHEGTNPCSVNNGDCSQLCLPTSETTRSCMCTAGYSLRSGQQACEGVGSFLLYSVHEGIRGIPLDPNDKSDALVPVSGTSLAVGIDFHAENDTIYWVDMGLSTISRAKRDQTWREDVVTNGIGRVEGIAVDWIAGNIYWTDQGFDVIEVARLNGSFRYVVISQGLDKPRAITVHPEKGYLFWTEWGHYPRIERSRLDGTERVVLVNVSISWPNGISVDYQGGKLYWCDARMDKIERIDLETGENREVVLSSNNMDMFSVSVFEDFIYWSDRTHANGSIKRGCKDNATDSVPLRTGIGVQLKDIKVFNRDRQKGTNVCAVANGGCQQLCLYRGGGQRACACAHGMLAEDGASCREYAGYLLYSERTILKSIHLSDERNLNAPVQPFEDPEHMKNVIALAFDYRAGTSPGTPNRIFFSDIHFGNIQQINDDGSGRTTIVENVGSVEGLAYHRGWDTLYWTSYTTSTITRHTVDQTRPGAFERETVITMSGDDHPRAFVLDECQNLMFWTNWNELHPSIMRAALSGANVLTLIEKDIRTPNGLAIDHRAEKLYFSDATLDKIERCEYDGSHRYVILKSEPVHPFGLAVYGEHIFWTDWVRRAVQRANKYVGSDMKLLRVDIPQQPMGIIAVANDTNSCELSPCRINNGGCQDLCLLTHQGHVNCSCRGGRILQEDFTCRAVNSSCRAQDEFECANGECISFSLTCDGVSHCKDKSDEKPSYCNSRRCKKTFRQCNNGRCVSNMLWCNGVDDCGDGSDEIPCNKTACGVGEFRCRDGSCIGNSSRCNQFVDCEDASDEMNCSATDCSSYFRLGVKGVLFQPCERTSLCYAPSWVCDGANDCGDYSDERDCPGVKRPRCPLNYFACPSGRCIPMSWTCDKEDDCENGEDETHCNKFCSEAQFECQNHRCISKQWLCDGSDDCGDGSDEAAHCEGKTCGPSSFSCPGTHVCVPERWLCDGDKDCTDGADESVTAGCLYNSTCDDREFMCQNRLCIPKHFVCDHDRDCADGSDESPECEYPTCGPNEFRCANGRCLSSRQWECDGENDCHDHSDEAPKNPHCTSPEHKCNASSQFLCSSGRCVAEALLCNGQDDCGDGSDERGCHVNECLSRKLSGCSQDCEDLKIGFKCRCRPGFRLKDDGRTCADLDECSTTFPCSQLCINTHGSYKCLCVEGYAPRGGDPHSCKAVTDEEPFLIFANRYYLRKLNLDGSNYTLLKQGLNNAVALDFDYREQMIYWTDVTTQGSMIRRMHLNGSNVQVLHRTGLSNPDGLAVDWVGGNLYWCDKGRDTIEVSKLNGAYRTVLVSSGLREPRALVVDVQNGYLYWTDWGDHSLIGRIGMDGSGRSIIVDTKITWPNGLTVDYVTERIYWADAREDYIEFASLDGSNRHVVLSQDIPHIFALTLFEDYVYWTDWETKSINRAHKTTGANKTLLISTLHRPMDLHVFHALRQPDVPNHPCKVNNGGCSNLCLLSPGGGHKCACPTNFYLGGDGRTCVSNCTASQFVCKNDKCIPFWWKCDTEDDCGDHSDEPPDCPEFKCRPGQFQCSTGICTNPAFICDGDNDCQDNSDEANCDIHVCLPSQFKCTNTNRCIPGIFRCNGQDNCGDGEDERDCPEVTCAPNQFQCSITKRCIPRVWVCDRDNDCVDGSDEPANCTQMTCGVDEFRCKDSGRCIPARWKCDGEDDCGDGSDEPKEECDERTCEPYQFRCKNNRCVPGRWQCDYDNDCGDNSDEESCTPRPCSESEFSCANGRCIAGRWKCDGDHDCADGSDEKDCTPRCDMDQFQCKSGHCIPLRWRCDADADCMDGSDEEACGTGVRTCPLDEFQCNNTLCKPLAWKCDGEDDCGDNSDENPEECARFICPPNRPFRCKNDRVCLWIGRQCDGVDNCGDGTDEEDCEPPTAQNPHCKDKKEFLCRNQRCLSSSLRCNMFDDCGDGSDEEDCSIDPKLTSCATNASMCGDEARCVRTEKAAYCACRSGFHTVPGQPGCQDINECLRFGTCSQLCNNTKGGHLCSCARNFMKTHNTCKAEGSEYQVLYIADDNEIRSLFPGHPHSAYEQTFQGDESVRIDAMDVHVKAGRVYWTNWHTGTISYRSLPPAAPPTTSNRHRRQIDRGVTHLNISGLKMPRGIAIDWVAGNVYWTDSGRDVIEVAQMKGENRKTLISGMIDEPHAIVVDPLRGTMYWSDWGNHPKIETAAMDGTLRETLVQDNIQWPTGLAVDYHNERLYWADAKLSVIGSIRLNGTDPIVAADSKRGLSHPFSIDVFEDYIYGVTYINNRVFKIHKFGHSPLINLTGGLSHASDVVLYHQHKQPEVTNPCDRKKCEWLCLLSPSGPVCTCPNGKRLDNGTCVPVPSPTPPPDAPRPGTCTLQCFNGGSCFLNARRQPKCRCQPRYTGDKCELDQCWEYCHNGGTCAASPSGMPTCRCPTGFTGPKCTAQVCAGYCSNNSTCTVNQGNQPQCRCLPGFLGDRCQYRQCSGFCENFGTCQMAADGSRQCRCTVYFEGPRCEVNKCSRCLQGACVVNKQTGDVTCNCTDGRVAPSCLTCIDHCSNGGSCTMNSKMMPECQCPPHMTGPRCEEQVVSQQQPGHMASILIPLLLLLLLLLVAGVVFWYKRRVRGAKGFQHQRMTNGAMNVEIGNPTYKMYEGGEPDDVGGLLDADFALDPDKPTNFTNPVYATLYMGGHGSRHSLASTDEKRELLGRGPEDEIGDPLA
molecule,measurement,setting,value
B1,Blocking of IGFBP-3-induced growth inhibition,[1],completely blocked
same,Blocking of IGFBP-3-induced specific dephosphorylation of IRS-2 by growth factors/cytokines,[2]; IGFBP-3 1 μg/ml […] then factor 10 nM (TGF-β1 20 pM) 0.5 hr,blocked
B2,Induction of specific dephosphorylation (mobility change) of 32P-labeled IRS-2,[2],did not induce
B3,Induction of specific dephosphorylation (mobility change) of 32P-labeled IRS-2,[2],did not induce
B4,^125I-α2M* binding,[3],did not have a significant effect
same,^125I-α2M* binding,[4],did not have a significant effect
same,^125I-TGF-β1 binding to purified TβR-V,"[5]; 0.1 nM 125I-TGF-β1, […] 0° C.",did not have a significant effect
same,^125I-IGFBP-3 binding to purified TβR-V,"[5]; 10 nM 125I-IGFBP-3, […] 0° C.",did not have a significant effect
same,Specific binding of ^125I-α2M*,[6],completely blocked
same,Specific binding of ^125I-α2M*,"[7]; 10 μM protein, pH 5.5, Mv1Lu",completely blocked
same,IC50,"[7]; Mv1Lu cells, pH 5 or 6, read-out: IC50, inhibition of ^125I-α2M* binding to cells",~50 nM
same,Specific binding of ^125I-α2M*,[8],completely blocked
